Assay results from patent US20160024208A1 (Regeneron, published 2016).
Each block holds one binder with its values, some of them ahead of it.

Columns and labels:
[1] = biological target: T1, N-Term Biotin Nav1.7 (3-1) peptide, mouse (mouse, not fully specified; N-terminal biotin attached via a G4S linker); assay: ELISA on coated peptide
T1 construct: Synthetic peptide; also called Mouse Nav1.7 3-1 N-term biotin
T1 peptide: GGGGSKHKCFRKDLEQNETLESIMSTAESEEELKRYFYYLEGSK
Summary of the method: (§1)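 Peptides coated at 4 μg/mL in PBS, or biotinylated peptides captured at 0.4 μg/mL on avidin (2 μg/mL). Antibodies at 0.1 and 1.0 μg/mL, 1 h at room temperature, detected with HRP anti-mouse or anti-human IgG and TMB at OD450. Scores at 1 μg/ml: <0.2 −; 0.2–1 +; 1–2 ++; 2–4 +++.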

[2] = biological target: T2, Native Nav1.7 (3-1) peptide, rat (rat); assay: ELISA on coated peptide
T2 construct: Synthetic peptide; also called Rat Nav1.7 3-1 native
T2 peptide: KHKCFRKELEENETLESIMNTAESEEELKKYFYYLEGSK
Summary of the method: as §1

[3] = biological target: T3, mouse Nav 1.7 in DRG neurons of wild type (Scn9a +/+) mice (mouse, UniProt Q62205 1-1984); assay: immunocytochemistry on cultured DRG neurons, antibody 66 nM
T3 construct: whole, on cells
Protocol: Briefly, lumbar DRGs were harvested from Scn9a^{hu/+}, Scn9a^{hu3-1/hu3-1} and Scn9a^{+/+} mice. After dissociation, cells were plated at a density of 5.5×10⁴ cells/well on 96 well plates treated with poly-DL-ornithine (0.1 mg/ml) and laminin (5 μg/ml) followed by incubation at 37° C. in 96.5% air and 3.5% CO₂. Neurons were maintained in culture in DMEM supplemented with 50 ng/ml nerve growth factor, 100 U/ml penicillin/streptomycin, MEM vitamins, and 10% heat-inactivated fetal calf serum.
After 3 to 8 days in culture, neurons were fixed in 4% PFA and 4% sucrose in PBS for 30 minutes, and permeabilized in 10% NGS and 0.1% Triton X-100. Neurons were then incubated overnight at 4° C. with anti-Naᵥ 1.7 antibodies at 66 nM (1 μg). The next day, neurons were incubated in 1:400 dilution of anti-human Alexa Fluor® 594 (Invitrogen) conjugated secondary antibody for 1 h at RT. Images were taken using a fluorescent microscope.

[4] = biological target: T4, N-Term Biotin-Nav1.7 (3-3) peptide, human (same sequence of EC3-3 for mulatta) (human (same sequence of EC3-3 for …, not fully specified; N-terminal biotin attached via a G4S linker); assay: ELISA on coated peptide, antibody 1 ug/ml, OD450 grade; Monkey column
T4 construct: ELISA peptide
T4 peptide: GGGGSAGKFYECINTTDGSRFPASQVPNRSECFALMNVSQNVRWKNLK
Protocol: (§2) Anti-Naᵥ 1.7 antibodies were tested for their ability to bind to the Naᵥ 1.7 peptides. The various peptides were coated overnight onto 96-well Nunc Immunosorp plates at a concentration of 4 μg/mL in PBS, followed by blocking for 1 hour in a suitable blocking agent. For biotinylated peptides, avidin was first coated on Nunc Immunosorp plates at 2 μg/mL in PBS overnight, followed by blocking as described, and the plate was then coated with biotinylated peptides at a concentration of 0.4 μg/mL and incubated for 1 hour at room temperature. Purified anti-Naᵥ 1.7 antibodies were diluted to a final concentration of 0.1 μg/mL and 1.0 μg/mL and added to the wells of the coated microtiter plates followed by incubation for 1 hour at room temperature. Bound antibodies were detected with horseradish peroxidase (HRP) conjugated anti-mouse or anti-human IgG (Jackson Immuno Research Lab, West Grove, Pa.) depending on the antibody species and developed by colorimetric response using tetramethylbenzidine (TMB) substrate (BD Biosciences). Absorbance was read at OD₄₅₀ on a plate reader for 0.1 second.
(§3) Values in Table 11 represent absolute binding ranges (at OD450) to plate-coated peptides for antibodies added at 1 μg/ml as follows: OD450<0.2: −; 0.2<OD450<1: +; 1<OD450<2: ++; 2<OD450<4: +++; NT: Not Tested.

[5] = biological target: T5, C-term Biotin Nav1.7 (3-3) peptide, human (human, C-terminal biotin attached via a G4S linker); assay: SPR, captured biotin-peptide, antibody analyte
T5 construct: Synthetic peptide; also called Human Nav1.7 3-3 C-term biotin
T5 peptide: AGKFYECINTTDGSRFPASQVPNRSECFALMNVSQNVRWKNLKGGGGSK

[6] = biological target: T4, N-Term Biotin-Nav1.7 (3-3) peptide, …; assay: ELISA on coated peptide, antibody 1 ug/ml, OD450 grade; Human
Protocol: as §2, §3

[7] = biological target: T6, C-Term Biotin Nav1.7 (3-3) peptide, mouse (mouse, C-terminal biotin attached via a G4S linker); assay: SPR, captured antibody, peptide analyte
T6 construct: Synthetic peptide; also called Mouse Nav1.7 3-3 C-term biotin
T6 peptide: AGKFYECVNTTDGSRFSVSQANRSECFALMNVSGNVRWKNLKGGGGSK
Summary of the method: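 Biacore SPR: antibody captured via Fc on anti-Fc surface, Nav1.7 loop peptides injected as analyte at several concentrations. Double-referenced sensorgrams globally fitted to a 1:1 model; KD = kd/ka, t1/2 = ln2/kd.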

T3 sequence (Q62205 whole entry): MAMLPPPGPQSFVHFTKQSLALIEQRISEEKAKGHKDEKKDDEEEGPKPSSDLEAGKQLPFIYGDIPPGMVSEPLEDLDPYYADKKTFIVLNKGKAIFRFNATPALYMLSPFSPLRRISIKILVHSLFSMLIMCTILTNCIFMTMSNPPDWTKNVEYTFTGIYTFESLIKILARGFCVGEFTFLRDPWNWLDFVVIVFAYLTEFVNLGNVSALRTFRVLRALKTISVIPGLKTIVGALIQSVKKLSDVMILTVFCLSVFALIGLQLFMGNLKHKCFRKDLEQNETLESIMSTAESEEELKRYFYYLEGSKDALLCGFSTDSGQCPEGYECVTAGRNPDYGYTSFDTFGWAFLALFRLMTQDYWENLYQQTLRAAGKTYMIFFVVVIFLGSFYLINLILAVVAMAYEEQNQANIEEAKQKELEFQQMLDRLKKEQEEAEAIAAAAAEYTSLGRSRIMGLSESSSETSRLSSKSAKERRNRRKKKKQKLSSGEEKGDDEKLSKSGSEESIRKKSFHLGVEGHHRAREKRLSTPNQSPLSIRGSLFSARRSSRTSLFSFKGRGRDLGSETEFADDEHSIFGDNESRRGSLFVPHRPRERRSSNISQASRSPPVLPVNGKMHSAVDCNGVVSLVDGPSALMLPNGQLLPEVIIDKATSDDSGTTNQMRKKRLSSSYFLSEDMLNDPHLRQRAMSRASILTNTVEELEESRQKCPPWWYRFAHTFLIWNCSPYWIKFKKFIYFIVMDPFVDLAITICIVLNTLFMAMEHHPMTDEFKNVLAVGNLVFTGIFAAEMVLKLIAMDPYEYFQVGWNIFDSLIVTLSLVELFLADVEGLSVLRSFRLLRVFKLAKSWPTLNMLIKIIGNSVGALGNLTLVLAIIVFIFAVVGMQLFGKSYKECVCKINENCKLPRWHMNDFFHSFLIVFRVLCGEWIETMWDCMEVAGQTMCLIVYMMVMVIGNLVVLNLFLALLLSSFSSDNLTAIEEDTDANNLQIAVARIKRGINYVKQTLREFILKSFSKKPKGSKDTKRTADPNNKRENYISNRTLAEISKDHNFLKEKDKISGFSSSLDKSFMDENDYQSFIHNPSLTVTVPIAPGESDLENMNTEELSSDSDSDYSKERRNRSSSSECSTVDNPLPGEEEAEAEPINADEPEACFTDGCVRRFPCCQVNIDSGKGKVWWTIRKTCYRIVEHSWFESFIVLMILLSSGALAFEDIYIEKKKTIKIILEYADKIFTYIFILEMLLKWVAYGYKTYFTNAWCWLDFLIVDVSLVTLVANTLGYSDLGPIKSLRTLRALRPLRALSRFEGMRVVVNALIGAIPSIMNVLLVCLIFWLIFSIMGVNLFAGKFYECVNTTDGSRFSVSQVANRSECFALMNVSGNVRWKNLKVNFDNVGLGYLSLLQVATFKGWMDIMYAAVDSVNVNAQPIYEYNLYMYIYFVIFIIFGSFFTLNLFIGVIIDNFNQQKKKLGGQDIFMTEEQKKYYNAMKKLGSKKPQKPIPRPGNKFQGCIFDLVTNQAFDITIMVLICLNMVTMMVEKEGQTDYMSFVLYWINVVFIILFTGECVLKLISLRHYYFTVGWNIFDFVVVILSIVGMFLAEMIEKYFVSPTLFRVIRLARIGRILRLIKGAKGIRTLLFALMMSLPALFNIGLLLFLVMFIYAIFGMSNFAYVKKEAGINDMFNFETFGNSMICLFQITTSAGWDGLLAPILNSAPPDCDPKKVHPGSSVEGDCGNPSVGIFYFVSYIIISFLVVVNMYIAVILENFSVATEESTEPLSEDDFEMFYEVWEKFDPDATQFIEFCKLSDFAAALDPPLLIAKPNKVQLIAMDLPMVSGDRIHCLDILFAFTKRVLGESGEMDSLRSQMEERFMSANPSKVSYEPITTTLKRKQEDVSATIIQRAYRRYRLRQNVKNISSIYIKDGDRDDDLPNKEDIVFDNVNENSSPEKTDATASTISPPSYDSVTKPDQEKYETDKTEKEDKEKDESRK

- OD450 [1]: < 0.2 od
- OD450 [2]: < 0.2 od
B1: H1M879N (antibody, V domains shown)
VH: EVQLVESGGGLVKPGGSLRLSCAASGFTFSSYTIHWVRQAPGKGLEWVSSISSSSSYIYYVDSVKGRFTISRDNAKNSVYLQMNSLRAEDTAVYYCATSSITARGYFDYWGQGTLVTVSS
VL: EIVLTQSPATLSLSPGERVTLSCRASQSVSSYLAWYQQKPGQAPRLLIYDASNRATGIPARFSGSGSGTDFTLTISSLEPEDFAVYYCQQRNIWPPTFGQGTKVEIK
notes: Hybridoma-derived

- binding result [3]: binds
B2: H1H1006B (antibody, V domains shown)
VH: EVQLVESGPGLVKSSETLSLKCTVSGGSISSSGYYWGWIRQPPGKGLEWIGSIHRSGSTFYNPSLKSRVTISVDTSKSQFSLRLTSVTAADTSVYFCGRHGRDYYYGMDVWGQGTTVTVSS
VL: DIQMTQSPSSVSASVGDRVTITCRSSQDINNWLVWYQQKPGKAPKVLIYGASRLQSGVPSRFSGSGSGTDFTLTISSLQPEDFATYYCQQANSFPLTFGGGTKVEIKR
notes: Fully human antibody; also called H4H1006B-1

- OD450 [4]: 1 to 2 od
- Kd [5]: 117 nM
- t1/2 [5]: 1.3 min
- OD450 [6]: 1 to 2 od
- binding result [7]: no binding
B3: H1M852N (antibody, V domains shown)
VH: QVQLVESGGGVVQPGRSLTLSCAASGFMFNRFGMHWVRQAPGKGLDWVAVIWYDGSNKYYADSVKGRFTISRDNSKNTLYLQVNSLRAEDTAVYYCAREGTPHYYDSSGLDYWGQGTLVTVSS
VL: AIQMTQSPSSLSAYVGDRVTITCRASQDIRNDLGWYQQKPGKAPNLLIYDISSLQSGVPSRFSGSGSGTDFTLTISSLQPEDFATYYCLQDYNYPLTFGGGTKVEIK
notes: constant region may differ; also called H4H852N
